Source: US10654893B2, “Self-assembling peptide compositions” (3-D MATRIX, LTD., priority 2014, dated 2020)

Columns and labels:
[1] = Formulation chart: concentration for desired storage modulus from linear trendline equations; type: physicochemical; conditions: linear trendline equation
Text: In some embodiments, peptide compositions with a specific desired stiffness may be formulated to have a particular peptide concentration determined using a mathematical model (i.e., the modulus trend-line equation). A formulation chart of peptide compositions may relate their concentrations in deionized water to their specific storage moduli, for example as is presented below in Table 3A. From such a chart, one skilled in the art may formulate a peptide composition with desired rheological properties by selecting a particular peptide and an appropriate peptide concentration so that the formulated composition has a desired stiffness.

[2] = Rheological properties at selected ionic strengths (DHR-1, 20 mm plates); type: physicochemical
Text: FIGS. 27-29 show rheological properties measured with a rheometer (DHR-1, TA Instruments) with 20 mm plates when ion strengths are slightly lower than the critical ion strengths. Ion strengths of RADA16 (SEQ ID NO:1), KLD12 (SEQ ID NO:2) and IEIK13 (SEQ ID NO:3) were 0.7 M, 0.2 M and 0.02M, respectively for the measurements. Rheological properties of RADA16 (SEQ ID NO:1), KLD12 (SEQ ID NO:2) and IEIK13 (SEQ ID NO:3) compositions were higher after adjusting their ionic strength levels with NaCl to 0.7 M (RADA16 (SEQ ID NO:1)), 0.2 M (KLD12 (SEQ ID NO:2)) or 0.02 M (IEIK13 (SEQ ID NO:3)).
Rheological properties of peptide compositions at selected ionic strengths were measured using a rheometer (DHR-1, TA Instruments) with 20 mm plates. […] Results are shown in FIG. 30 for RADA16 (SEQ ID NO:1) and in FIG. 31 for IEIK13 (SEQ ID NO:3).
Viscosities of peptide compositions at selected ionic strength levels were evaluated. […] Viscosities of 1% IEIK13 (SEQ ID NO:3) compositions were evaluated using a rheometer (DHR-1, TA Instruments) with 20 mm plates. The results are shown in FIGS. 32A and 32B for IEIK13 (SEQ ID NO:3).

[3] = Rheological properties before and after DMEM treatment; type: physicochemical
Experimental: Effects of Dulbecco's modified Eagle's medium (DMEM) (pH 7.4) on rheological properties of IEIK13 (SEQ ID NO:3), KLD12 (SEQ ID NO:2), and RADA16 (SEQ ID NO:1) compositions were evaluated using a rheometer (AR500, TA Instruments) with 40 mm plates. DMEM is a cell culture medium that contains 6.4 g/L of NaCl, 3.4 g/L NaHCO3 (sodium bicarbonate), minor amounts of other salts, various amino acids, and 4.5 g/L of glucose. The pH of DMEM is 7.2±0.2 and the osmolality is 335±30 mOsm/Kg H2O. DMEM is close to human physiological fluids, for example, blood.
Before being mixed with the DMEM solution, 1% peptide compositions were kept in 4° C. for at least 48 hours. To perform experiments, 1 mL of peptide composition was gently pipetted and placed on the plate of the rheometer. 2 mL of the DMEM solution was gently added around the peptide composition. The peptide composition was treated with the DMEM for two minutes, then medium was removed, and the plates were placed at a measuring geometry gap at around 450 μm. Measurements were performed at 37° C. after 2 min of relaxation. Frequency tests were performed from 1 rad/s to 100 rad/s at 1 Pa of oscillation stress.
Using a DHR-1 rheometer (TA Instruments), rheological properties of peptide compositions at selected concentrations were measured before and after the DMEM treatment. Frequency sweep tests were performed from 1 rad/sec to 10 rad/sec at 1 Pa and the storage moduli in the graphs were at 1 rad/sec. […] Results are shown in FIGS. 22A and 22B for RADA16 (SEQ ID NO:1) and FIGS. 23A and 23B for IEIK13 (SEQ ID NO:3), respectively.
Using a DHR-1 rheometer (TA Instruments), rheological properties of peptide compositions at selected ion strengths were evaluated 10 mins after the DMEM treatment. Frequency sweep tests were performed from 1 rad/sec to 10 rad/sec at 1 Pa and the storage modulus at 1 rad/sec was selected for data. […] At 0.9 M or higher ionic strengths of NaCl, RADA16 (SEQ ID NO:1) compositions became cloudy.

[4] = tested on: C57 BL/6 Mouse Mesenchymal Stem Cells (mMSCs); assay: Cell viability (cytotoxicity) assay; type: cell-based
Experimental: A cell viability (cytotoxicity) assay was performed to measure the viability of C57 BL/6 Mouse Mesenchymal Stem Cells (mMSCs) with IEIK13 (SEQ ID NO:3), KLD12 (SEQ ID NO:2) and RADA16 (SEQ ID NO:1) compositions as described herein. mMSCs are a frequently used cell line in hydrogel tissue culture systems. […] The final concentration of sucrose was 10%. Cells were washed and re-suspended in 10% sucrose to a final concentration of 5 million cells/ml. Cells were centrifuged and the supernatant was removed. The cells were re-suspended in peptide compositions with 10% sucrose. The protocol was then followed for plating drop cultures and subsequent isolation as described in the PuraMatrix® Guidelines for Use (BD/Corning website). Results are shown in FIGS. 14-16 for RADA16 (SEQ ID NO:1), IEIK13 (SEQ ID NO:3), and KLD12 (SEQ ID NO:2), respectively.

With “Arg-Ala-Asp-Ala-Arg-Ala-Asp-Ala-Arg-Ala-Asp-Ala-Arg-Ala-Asp-Ala [RADA16]” the “Peptide concentration with deionized water to obtain desired storage modulus” value (shortened to “Peptide concentration”) ([1]; storage modulus 25 Pa) was 0.8, the “Peptide concentration” value ([1]; storage modulus 50 Pa) was 0.9 and the “Peptide concentration” value ([1]; storage modulus 75 Pa) was 1.0. The “Peptide concentration” value ([1]; storage modulus 100 Pa) was 1.2, the “Peptide concentration” value ([1]; storage modulus 125 Pa) was 1.3 and the “Peptide concentration” value ([1]; storage modulus 150 Pa) was 1.5. For the same substance, the “Peptide concentration” value ([1]; storage modulus 175 Pa) was 1.6, the “Peptide concentration” value ([1]; storage modulus 200 Pa) was 1.7 and the “Peptide concentration” value ([1]; storage modulus 225 Pa) was 1.9. The “Peptide concentration” value ([1]; storage modulus 250 Pa) was 2.0, the “Peptide concentration” value ([1]; storage modulus 275 Pa) was 2.2 and the “Peptide concentration” value ([1]; storage modulus 300 Pa) was 2.3. For the same substance, the “Peptide concentration” value ([1]; storage modulus 325 Pa) was 2.4, the “Peptide concentration” value ([1]; storage modulus 350 Pa) was 2.6 and the “Peptide concentration” value ([1]; storage modulus 375 Pa) was 2.7. For the same substance, the “Peptide concentration” value ([1]; storage modulus 400 Pa) was 2.9, the “Peptide concentration” value ([1]; storage modulus 425 Pa) was 3.0 and the “Peptide concentration” value ([1]; storage modulus 500 Pa) was 3.4. The “Peptide concentration” value ([1]; storage modulus 600 Pa) was 4.0, the “Peptide concentration” value ([1]; storage modulus 700 Pa) was 4.5 and the “Peptide concentration” value ([1]; storage modulus 800 Pa) was 5.1. For the same substance, the “Rheological properties as a function of ionic strength” value ([2]; 1% compositions, NaCl, decreased at higher ionic strength) was “increased with ionic strength adjustment up to 0.7 M”, the “Rheological properties after adjusting ionic strength with NaCl” value ([2]; NaCl 0.7 M (RADA16), 0.2 M (KLD12), 0.02 M (IEIK13), 1%) was “higher” and the “Rheological properties with NaCl versus KCl and CaCl2” value ([2]; RADA16 compositions with salts) was “slightly higher”. For the same substance, the Appearance of composition ([3]; 0.9 M or higher ionic strengths of NaCl) was “became cloudy”, the “Rheological properties as a function of ionic strength after DMEM treatment” value ([3]; 10 mins after DMEM treatment, NaCl, decreased with 0.7 M or higher) was “increased with ionic strength adjustment up to 0.7 M” and the “Change of rheological properties with DMEM treatment” value ([3]; selected NaCl ionic strengths, RADA16 statement follows 0.9 M or higher NaCl (no gelation)) was “did not change with the DMEM treatment”. The “Rheological properties with DMEM treatment and/or pH elevation” value ([3]; selected concentrations, storage moduli at 1 rad/sec, 1 Pa) was “increased with the DMEM treatment and/or pH elevation” and the “Cell viability at 0.5% versus 0.25%” value [4] was “significantly higher than that at 0.25%”.
